Measurements from patent US20160264648A1 (OSAKA UNIVERSITY, published 2016).

Experiments:
[1] = molecular target: hemagglutinin (HA) of influenza A virus A/Suita/117/2011 (H1N1pdm) (influenza A virus A/Suita/117/2011 (H1N1pdm)); experiment: cell-based or functional assay
[2] = molecular target: hemagglutinin (HA) of influenza A virus A/Suita/105/2011 (H1N1pdm) (influenza A virus A/Suita/105/2011 (H1N1pdm)); experiment: cell-based or functional assay
[3] = molecular target: hemagglutinin (HA) of influenza A virus A/Turkey/Wisconsin/1/1966 (H9N2) (influenza A virus A/Turkey/Wisconsin/1/1966 (H9N2)) (UniProt P03457); experiment: cell-based or functional assay
[4] = molecular target: hemagglutinin (HA) of influenza A virus A/Osaka/168/2009 (H1N1pdm) (influenza A virus A/Osaka/168/2009 (H1N1pdm)); experiment: cell-based or functional assay
[5] = molecular target: hemagglutinin (HA) of influenza A virus A/Suita/104/2011 (H1N1pdm) (influenza A virus A/Suita/104/2011 (H1N1pdm)); experiment: cell-based or functional assay
[6] = molecular target: hemagglutinin (HA) of influenza A virus A/PR8/1934 (seasonal H1N1) (influenza A virus A/PR8/1934 (H1N1sea)) (UniProt P03452); experiment: cell-based or functional assay
[7] = molecular target: hemagglutinin (HA) of influenza A virus A/Brisbane/59/2007 (seasonal H1N1) (influenza A virus A/Brisbane/59/2007 (H1N1sea)); experiment: cell-based or functional assay
[8] = molecular target: hemagglutinin (HA) of influenza A virus A/PR8/1934 (seasonal H1N1) (influenza A virus A/PR8/1934 (H1N1sea), UniProt P03452 18-565); experiment: cell-based or functional assay
[9] = molecular target: hemagglutinin (HA) of influenza A virus A/Turkey/Wisconsin/1/1966 (H9N2) (influenza A virus …, UniProt P03457 19-560); experiment: cell-based or functional assay
[10] = molecular target: hemagglutinin (HA) of influenza A virus A/Duck/Egypt/D1Br12/2007 (H5N1) (influenza A virus A/Duck/Egypt/D1Br12/2007 (H5N1)); experiment: cell-based or functional assay
[11] = molecular target: hemagglutinin (HA) of influenza A virus A/Chicken/Egypt/R1MD12-3/2008 (H5N1) (influenza A virus A/Chicken/Egypt/RIMD12-3/2008 (H5N1)); experiment: cell-based or functional assay
[12] = molecular target: hemagglutinin (HA) of influenza A virus A/Aichi/2/1968 (H3N2) (influenza A virus A/Aichi/2/1968 (H3N2), UniProt P03437 17-566); experiment: IFA on virus-infected MDCK cells

Molecule | Neutralization activity (VN50 value µg/ml) [1] [µg/mL] | Neutralization activity (VN50 value µg/ml) [2] [µg/mL] | Neutralization activity (VN50 value µg/ml) [3] [µg/mL] | Neutralization activity (VN50 value µg/ml) [4] [µg/mL] | Neutralization activity (VN50 value µg/ml) [5] [µg/mL] | Neutralization activity (VN50 value µg/ml) [6] [µg/mL] | Neutralization activity (VN50 value µg/ml) [7] [µg/mL] | Neutralization activity (VN50 value µg/ml) [8] [µg/mL] | Neutralization activity (VN50 value µg/ml) [9] [µg/mL] | Neutralization activity (VN50 value µg/ml) [10] [µg/mL] | Neutralization activity (VN50 value µg/ml) [11] [µg/mL] | binding result [12]
mouse MAb C179 capable of exhibiting a broad reactivity with HAs belonging to group 1 (antibody) | 5.73 | 3.11 | 5.53 | 5.68 | 5.98 | 3.1 | 5.57 | – | – | – | – | –
human monoclonal antibody (HuMAb) 1H11 (antibody, V domains shown) VH: QVQLVQSGAEVKKPGSSVKVSCKSSGGNFNNYAVSWVRQAPGQGLEWMGGISPIFGSTNHAQKFQGRVTISADIFTNTAYMELSSLRSDDTAIYYCARGRGYYFYHAMDVWGQGSTVTVSS VL: QSALTQPASVSGSPGQSITISCTGTSSDVGGYNYVSWYQQHPGEAPKLMISDVSNRPSGVSNRFSGSKSGNTASLTISGLQAEDEADYYCTSYTSSNTLVFGGGTKLTVL | 11.6 | 11.4 | – | 0.78 | 11.3 | – | 2.89 | 2.87 | 11.8 | 6.08 | 6.12 | no binding
human monoclonal antibody (HuMAb) 2H5 (antibody, V domains shown) VH: QVQLVQSGAEVKKPGSSVKVSCKSSGGNFNNYAVSWVRQAPGQGLEWMGGISPIFGSTNHAQKFQGRVTISADIFTNTAYMELSSLRSDDTAIYYCARGRGYYFYHAMDVWGQGSTVTVSS VL: QSVLTQPPSVSAAPGQKVTISCSGSSSNIGHNFVSWYQQLPATAPKLLIYDTDKRPSGIPDRFSGSKSGTSATLGITGLQTGDEADYYCGTWDSSLSSVIFGGGTKLTVL | 6.03 | 6.21 | – | 1.51 | 6 | – | 5.53 | 5.83 | > 100 | 6.05 | 11.7 | no binding
